B1: SP_0530 (dsDNA)
DNA 1: ATTTGAGGAACAAATGTACGTTTATAA
DNA 2: TTATAAACGTACATTTGTTCCTCAAAT
B2: SP_0045 (dsDNA)
DNA 1: GGTGAACTAACAGATGTTTACGAAATT
DNA 2: AATTTCGTAAACATCTGTTAGTTCACC
B3: SP_1863 (dsDNA)
DNA 1: ATGAATAAAACAATTGTAACACTCATC
DNA 2: GATGAGTGTTACAATTGTTTTATTCAT
B4: SP_0090 2 (dsDNA)
DNA 1: GAGTATACTAATAATGTAATCGTTATC
DNA 2: GATAACGATTACATTATTAGTATACTC
B5: SP_0090 1 (dsDNA)
DNA 1: TGATTTAGGACATTTGTTTGATAGTGG
DNA 2: CCACTATCAAACAAATGTCCTAAATCA
B6: SP_1433 (dsDNA)
DNA 1: GTAATTATAACAGATGTATAATAGAAA
DNA 2: TTTCTATTATACATCTGTTATAATTAC
B7: Streptococcus thermophilus CopY (natural protein, S. thermophilus, UniProt Q5M352 1-143, looked up)
chain: MLAISSAEWEVMRVLWAKGQATSSEIIEILAKKLDWSASTVKTLIGRLADKGYLTSQRQGRGFIYQASLGEDEAIFQALEAVFDKICLTKHSDLLGQLIAKTPMTQADVDKLQALLLAKVPVDQVVCDCVPGQCACGHHMEVN
notes: CopY (CopR-CopY family cop operon repressor), Streptococcus thermophilus; cloned from genomic DNA; also called S. thermophilus cop operon repressor; CopR-CopY; source: recombinant (pMCSG7 vector), purified (IMAC, TEV cleavage, subtractive IMAC, SEC); not shown: His6, N-terminal, cleaved
B8: wild type two-operator DNA (BLI) (dsDNA)
DNA 1: TAATTGACAAATGTAGATTTTAAGAGTATACTGATGAGTGTAATTGACAAATGTAGATTTT
DNA 2: AAAATCTACATTTGTCAATTACACTCATCAGTATACTCTTAAAATCTACATTTGTCAATTA
B9: Enterococcus hirae CopY E86D (natural protein)
chain: MEEKRVLIKISDSEWEVMRVIWTLGQANAQQITQILADSMDWKVATVKTLLGRLVKKEALWTEQEGKKFIYHPAVSEMENVRSATDNLFSHICAKRVGATIADLVEEATLTQEDIQQIMKQLNKKEPVETIECNCIPGQCECKKQ
notes: CopY, cop operon repressor, Enterococcus hirae; cloned from genomic DNA; the methods call the gene copR; The wild type was cut by TEV inside the protein and was used uncleaved; also called E. hirae cop repressor; cleaved E86D protein; source: recombinant (pMCSG7 vector), purified (IMAC, TEV cleavage, subtractive IMAC, SEC); not shown: His6, N-terminal, cleaved
B10: SP_2073 (dsDNA)
DNA 1: AAGGCGGAAACATGTGTCAATGACTTG
DNA 2: CAAGTCATTGACACATGTTTCCGCCTT

What was measured:
[1] = molecular target: CopY (S. pneumoniae) (Streptococcus pneumoniae (TIGR4?)) (UniProt A0ACD7PQP7); test: BLI; settings: BLI: 50 mM Tris pH 7.4, 150 mM NaCl, 4% glycerol, 1 mM TCEP, 0.1% BSA, 26 C; EMSA: Tris-borate without EDTA, 4 C, 5% PAGE
[2] = molecular target: Streptococcus pneumoniae CopY (S. pneumoniae); test: SEC; Superdex 200; 20 mM Tris (pH 8), 200 mM NaCl, 1 mM TCEP; elution volume compared to an SEC standard (Bio-Rad); on ice or at 4°C
CopY (S. pneumoniae) [3] = molecular target: T1, CopY (S. pneumoniae) (Streptococcus pneumoniae, UniProt A0ACD7PQP7 1-131); test: BLI; 3 uM CopY; BLI: 50 mM Tris pH 7.4, 150 mM NaCl, 4% glycerol, 1 mM TCEP, 0.1% BSA, 26 C; EMSA: Tris-borate without EDTA, 4 C, 5% PAGE; settings: protein: recombinant; tags: N-terminal 6xHis removed by TEV (pMCSG7; also tested uncleaved); chain copies: 2; label: 5' biotin on forward strand; blunt
[4] = molecular target: the molecule itself; test: SEC; Superdex 200; 20 mM Tris (pH 8), 200 mM NaCl, 1 mM TCEP; elution volume compared to an SEC standard (Bio-Rad); on ice or at 4°C
CopY (S. pneumoniae) [5] = molecular target: T1, CopY (S. pneumoniae); test: BLI; BLI: 50 mM Tris pH 7.4, 150 mM NaCl, 4% glycerol, 1 mM TCEP, 0.1% BSA, 26 C; EMSA: Tris-borate without EDTA, 4 C, 5% PAGE; settings: protein: recombinant; tags: N-terminal 6xHis removed by TEV (pMCSG7; also tested uncleaved); chain copies: 2; label: 5' biotin on forward strand; blunt

Molecule | Kd [1] | binding result (CopY (S. pneumoniae) [3]) | other results
16 bp (16 of 21 repeat bases kept: ATTGACAAATGTAGAT) | 360 nM |  | 
full palindrome (A13C) | 39.6 nM |  | 
19 bp (19 of 21 repeat bases) | 37.1 nM |  | 
14 bases (14 of 21 repeat bases) | > 3000 nM |  | 
19 bp T to C (operator position 3) | 40.4 nM |  | 
Streptococcus pneumoniae CopY (natural protein) |  |  | stoichiometry N [2]: 2
E. hirae proximal operator | 164 nM |  | 
B1 |  | no binding | 
B2 |  | no binding | 
B3 |  | no binding | 
B4 |  | no binding | 
B5 |  | no binding | 
B6 |  | no binding | 
B7 |  |  | stoichiometry N [4]: 2
B8 |  |  | Kd (CopY (S. pneumoniae) [5]): 28.1 ± 0.2 nM
B9 |  |  | stoichiometry N [4]: 2
B10 |  | no binding | 
